The values below come from patent US20080293632.

In this series the target is SHOX full length (Homo sapiens) (UniProt O15266). Kind of series: cell_activity. Particulars: luciferase.
SHOX full length (Homo sapiens), sequence (O15266 whole entry): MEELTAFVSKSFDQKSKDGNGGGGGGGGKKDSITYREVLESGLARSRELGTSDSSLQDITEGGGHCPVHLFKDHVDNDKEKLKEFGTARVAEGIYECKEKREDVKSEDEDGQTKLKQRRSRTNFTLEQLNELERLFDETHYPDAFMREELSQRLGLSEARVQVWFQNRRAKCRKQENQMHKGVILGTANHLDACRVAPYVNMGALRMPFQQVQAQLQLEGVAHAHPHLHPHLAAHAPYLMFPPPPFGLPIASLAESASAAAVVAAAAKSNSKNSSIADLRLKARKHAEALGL

Where the note is “forward orientation, reverse 8-fold”, “BNP 5' flanking region reporter (BNP for / BNP rev)” came in with an activity (fold induction) of 10.

With “p3XG reporter (SHOX binding site before SV40 core promoter)”, the activity (fold induction) came out at 2.
